Experimental data: patent publication US11505576B2, “Polypeptides based on a scaffold” (AFFIBODY AB, priority 2018, dated 2022)

How the values were obtained:
insulin = target: T1, insulin (Homo sapiens, UniProt P01308); test: Kinetic analysis using surface plasmon resonance (Biacore T200), immobilized insulin; assay type: binding; details: MGSSHHHHHHGSS-[Y#####]-A
T1 construct: purchased Roche 1376497
Experimental: Kinetic constants (ka and kd) and affinities (KD) were determined for His6-tagged Y variants using a Biacore T200 instrument (GE Healthcare). Target proteins C4, IL-6 and insulin, respectively, were immobilized in separate flow cells on the carboxylated dextran layer of different CM5 chip surfaces (GE Healthcare). Immobilization was performed using amine coupling chemistry according to the manufacturer's protocol and PBS pH 7.4 supplemented with 0.1 Tween20 (PBST 0.1%) as running buffer. The ligand immobilization levels on the surfaces were 3280-8830 RU for C4, 495-1184 RU for IL-6, and 270-282 RU for insulin. One flow cell surface on each chip was activated and deactivated for use as blank during analyte injections. In the kinetic experiment, PBST 0.1% was used as running buffer at a flow rate of 30 μl/min. The analytes, i.e. Y variants, were each diluted in PBST 0.1 buffer at concentrations of 1000, 500, 100, 50 and 10 nM and injected for 5 min, followed by dissociation in running buffer for 3 min. After dissociation, the surfaces were regenerated with one injection of 30 μl 10 mM HCl. Kinetic constants were calculated from the sensorgrams using the Langmuir 1:1 model of Biacore T200 Evaluation software 2.0 (GE Healthcare).
(§1) Produced Y variants were subjected to CD and SPR analyses according to the methods described in Example 1.
(§2) The Y variants were cloned, produced and characterized according to the general methods described in Example 1. Produced Y variants with point mutations and/or N-terminal or C-terminal extensions were subjected to CD and SPR analyses as described in Example 1.
(§3) Produced Y variants were subjected to CD and SPR analyses according to the methods described in Example 1. In addition, CD spectra of selected IL-6 binding variants were also recorded at 60, 70, 80 and 90° C.
(§4) The Y variants were cloned, produced and characterized according to the general methods described in Example 1. Produced Y variants with point mutations were subjected to CD and SPR analyses as described in Example 1. In addition, CD spectra of the IL-6 binding variants were also recorded at 60, 70, 80 and 90° C.

[1] = Circular dichroism spectroscopy analysis (CD spectra, variable temperature measurement, refolding); assay type: physicochemical
Experimental: The respective Y variant was diluted to 0.5 mg/ml in PBS. A CD spectrum at 250-195 nm was obtained at 20° C. In addition, a variable temperature measurement (VTM) was performed to determine the melting temperature (Tm). In the VTM, absorbance was measured at 221 nm while the temperature was raised from 20° C. to 90° C. with a temperature gradient of 5° C./min. A new CD spectrum was obtained at 20° C. after the heating procedure, in order to study the refolding ability of the Y variants. The CD measurements were performed on a Jasco J-810 spectropolarimeter (Jasco Scandinavia AB) using a cell with an optical path length of 1 mm.
as §1, §2, §3, §4

[2] = Fraction of soluble product on expression in E. coli, estimated from SDS-PAGE; assay type: physicochemical; details: for Est soluble fraction: Table 9, mutation study 5
Experimental: E. coli T7E2 cells were transformed with plasmids containing the gene fragment of each respective Y variant. The resulting recombinant strains were generally cultivated in media supplemented with 50 μg/ml kanamycin at 30-37° C. in 50 ml scale using the EnPresso protocol (Enpresso GmbH). In order to induce protein expression, isopropyl-β-D-1-thiogalactopyranoside (IPTG) was added to a final concentration of 0.5 mM at an optical density at 600 nm (OD600) of approximately 10. After induction, the cultures were incubated for 16 h. The cells were harvested by centrifugation. Alternatively, the culture was performed at 37° C. in 980 ml of TSB-YE medium (tryptic soy broth 30 g/l supplemented with yeast extract 5 g/l) supplemented with 50 μg/ml kanamycin, and protein expression induced with 0.2 mM IPTG at OD600=2, followed by incubation for 5 h before harvesting of the cells by centrifugation. The total yield as well as the fraction of soluble and insoluble product of the respective Y variant was estimated based on SDS-PAGE analysis.

[3] = Table 7, MGSSHHHHHHGSS-[Y#####]-A
[4] = Table 7, Ylib002Naive.I selection, MGSSHHHHHHGSS-[Y#####]-A
[5] = Table 8, mutation study 4, MGSSHHHHHHGSS-[Y#####]
[6] = Table 9, mutation study 5, MGSSHHHHHHGSS-[Y#####]-A

T1 sequence (P01308 25-54 limits assumed): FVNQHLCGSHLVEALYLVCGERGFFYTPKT
T1 sequence (P01308 90-110 limits assumed): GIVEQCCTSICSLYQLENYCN

Kd (insulin; Table 7) [nM] | ka (insulin; Table 7) [M⁻¹ s⁻¹] | kd (insulin; Table 7) [s⁻¹] | Substance | Tm [1, 3] [°C] | Estimated soluble fraction [2, 4] [%] | Tm [1, 6] [°C] | Est soluble fraction ([2]; MGSSHHHHHHGSS-[Y#####]-A) [%] | further results
6.5 | 310000 | 0.002 | Y00299: insulin binding Y variant from Ylib002Naive.I, SEQ ID NO:132 (LAEAKEAAIAELDSKGVGAYQIKFIQVAKTVEQVQILKQAILADLPA; Engineered insulin binding Y variant) | 56 | 75 |  |  | 
0.94 | 2.9e+07 | 0.056 | Y00301: insulin binding Y variant from Ylib002Naive.I, SEQ ID NO:133 (LAEAKEAAIAELDSKGVGARQIKWIQQAKSVEVVQWLKQAILADLPA; Engineered insulin binding Y variant) | 62 | 83 |  |  | 
21 | 85000 | 0.0011 | Y00304: insulin binding Y variant from Ylib002Naive.I, SEQ ID NO:134 (LAEAKEAAIAELDSKGVGAYQIKFIQVAHDVEEVQILKQAILADLPA; Engineered insulin binding Y variant) | 41 | 33 |  |  | 
37 | 170000 | 0.0063 | Y00310: insulin binding Y variant from Ylib002Naive.I, SEQ ID NO:135 (LAEAKEAAIAELDSKGVGAYQIKFIQIAHTVEEVQLMKQAILADLPA; Engineered insulin binding Y variant) | 54 | 86 |  |  | 
120 | 30000 | 0.0037 | Y00330: insulin binding Y variant from Ylib002Naive.I, SEQ ID NO:136 (LAEAKEAAIAELDSKGVGAKYIKMIQMAKHVETVQYMKQAILASLPA; Engineered insulin binding Y variant) | 56 | 67 |  |  | 
61 | 290000 | 0.017 | Y00345: insulin binding Y variant from Ylib002Naive.I, SEQ ID NO:138 (LAEAKEAAIAELDSKGVGAYQIKFIQVAKTVEAVQAIKQAILADLPA; Engineered insulin binding Y variant) | 53 | 80 |  |  | 
0.17 | 3.4e+07 | 0.0061 | Y00356a: insulin binding Y variant from Ylib002Naive.I, SEQ ID NO:141 (LAEAKEAAIAELDSKGVGAKYIKMIQHAHYVEVVQWLKQAILAHLPA; Engineered insulin binding Y variant) | 56 | 60 |  |  | 
10 | 220000 | 0.0023 | Y00358: insulin binding Y variant from Ylib002Naive.I, SEQ ID NO:142 (LAEAKEAAIAELDSKGVGAAKIKWIQDAKSVETVQFLKQAILAELPA; Engineered insulin binding Y variant) | 61 | 97 |  |  | 
310 | 12000 | 0.0036 | Y00361: insulin binding Y variant from Ylib002Naive.I, SEQ ID NO:144 (LAEAKEAAIAELDSKGVGAKFIKMIQSAKLVETVQLLKQAILADLPA; Engineered insulin binding Y variant) | 52 | 100 |  |  | 
 |  |  | Y02676: insulin binding Y variant, Y00356 with Q26E, SEQ ID NO:147 (LAEAKEAAIAELDSKGVGAKYIKMIEHAHYVEVVQWLKQAILAHLP; Engineered insulin binding Y variant) |  |  |  |  | Tm [1, 5]: 56 °C; Estimated soluble fraction [2, 5]: 55%
 |  |  | Y02685: C4 binding Y variant, Y00792 with I9L, SEQ ID NO:40 (LAEAKEAALAELDSKGVGADLIKKIQQASSVEGVQFWKQEILAQLPA; Engineered C4 binding Y variant) |  |  | 53 | 100 | 
 |  |  | Y02686: C4 binding Y variant, Y00792 with K15Y, SEQ ID NO:41 (LAEAKEAAIAELDSYGVGADLIKKIQQASSVEGVQFWKQEILAQLPA; Engineered C4 binding Y variant) |  |  | 59 | 100 | 
 |  |  | Y02687: C4 binding Y variant, Y00792 with Q26E, SEQ ID NO:42 (LAEAKEAAIAELDSKGVGADLIKKIEQASSVEGVQFWKQEILAQLPA; Engineered C4 binding Y variant) |  |  | 57 | 100 | 
 |  |  | Y02688: C4 binding Y variant, Y02330 with I9L, SEQ ID NO:43 (LAEAKEAALAELDSKGVGAELIKKIQHAESVEGVQFWKQEILAYLPA; Engineered C4 binding Y variant) |  |  | 50 | 100 | 
 |  |  | Y02689: C4 binding Y variant, Y02330 with K15Y, SEQ ID NO:44 (LAEAKEAAIAELDSYGVGAELIKKIQHAESVEGVQFWKQEILAYLPA; Engineered C4 binding Y variant) |  |  | 53 | 100 | 
 |  |  | Y02690: C4 binding Y variant, Y02330 with Q26E, SEQ ID NO:45 (LAEAKEAAIAELDSKGVGAELIKKIEHAESVEGVQFWKQEILAYLPA; Engineered C4 binding Y variant) |  |  | 53 | 100 | 
 |  |  | Y02691: C4 binding Y variant, Y00792 with K15Y Q26E, SEQ ID NO:46 (LAEAKEAAIAELDSYGVGADLIKKIEQASSVEGVQFWKQEILAQLPA; Engineered C4 binding Y variant) |  |  | 58 | 100 | 
 |  |  | Y02692: C4 binding Y variant, Y02309 with K15Y Q26E, SEQ ID NO:47 (LAEAKEAAIAELDSYGVGADLIKKIEKAESVEGVQFWKQEILATLPA; Engineered C4 binding Y variant) |  |  | 57 | 100 | 
 |  |  | Y02693: C4 binding Y variant, Y02330 with K15Y Q26E, SEQ ID NO:48 (LAEAKEAAIAELDSYGVGAELIKKIEHAESVEGVQFWKQEILAYLPA; Engineered C4 binding Y variant) |  |  | 52 | 100 | 
 |  |  | Y02709: insulin binding Y variant, Y00358 with I9L, SEQ ID NO:149 (LAEAKEAALAELDSKGVGAAKIKWIQDAKSVETVQFLKQAILAELPA; Engineered insulin binding Y variant) |  |  | 54 | 100 | Kd (insulin; Table 9, mutation study 5): 380 nM; ka (insulin; Table 9, mutation study 5): 27000 M⁻¹ s⁻¹; kd (insulin; Table 9, mutation study 5): 0.01 s⁻¹
 |  |  | Y02710: insulin binding Y variant, Y00358 with K15Y, SEQ ID NO:150 (LAEAKEAAIAELDSYGVGAAKIKWIQDAKSVETVQFLKQAILAELPA; Engineered insulin binding Y variant) |  |  | 61 | 100 | Kd (insulin; Table 9, mutation study 5): 14 nM; ka (insulin; Table 9, mutation study 5): 190000 M⁻¹ s⁻¹; kd (insulin; Table 9, mutation study 5): 0.0027 s⁻¹
